The nature of this data set: soluble on expression in E. coli; label from the status in PepcDB or PDB records.
With “IHPVDSSERVLILGAGRTAEALVRDMRRTGAFVPVGFIDDAVYLRGAKIQGLNVLGRLEEVSTIARETAAKLLVIAIPSLDAAGMQRVVAMCESTGLPFRMVPKLIDVLEGRTLPCQLKEVSIEDLLNRKPVIPDWRLIRSWLSG”, the “soluble on expression in E. coli” value is listed as “not soluble”. To “MDRKTRLSEPPTLALRLKPYKTAIQQLRSVIRALKENTTVTFLPTPSLILQTVRSHCVSKITFNSSCLYITDKSFQPKTINNSTPLLGNFMYLTSSKDLTKFYVQDISDLSAKISMCAPDFNMEFSSACVHGQDIVRESENSAVHVDLDFGVVADLLKWIGPHTRVKRNVKKAPCPTGTVQILVHAGPPAIKFILTNGSELEFTSNNRVSFHGVKNMRINVQLKNFYQTLLNCAVTKLPCTLRIVTEHDTLLYVASRNGLFAVENFLTEEPFQRGDPFDKNYVGNSGKSR” belongs “soluble”. In the case of “MKNGEQNGPTTCTNCFTQTTPVWRRNPEGQPLCNACGLFLKLHGVVRPLSLKTDVIKKRNRNSANS”, the “soluble on expression in E. coli” value is reported as “soluble”. The result for “DFVHIMTPYLILDGELLHALKFAAERGVDVIIIMPGIPDKKSAYYLAKTYYPTLLASGVKIYEYTPGFIHAKVFVSDNSRAVVGTINLDYRSLYHHFECATYLYGTSSVLDIEEDFQATKDQCHRVSTTDVKNLPFYQKTLGLLARLVAP” reads “not soluble”; that for “MGSDKIHHHHHHMYVLHICHSYYPPFLDCARQYAALFKDSPYKVVTVYLTGKPDPEVERGSASDEVVFLGYSSKQVKGLKLGAIAKIRQLVKSRNFAFCIAHRAKPTYVALLATGLPVVSVHHNYNDYGRFTRRILVNFYRKRILMLCVSNSVRDEMRQHLKHWPAEQIQTLYNRIDVDAVRQSLLPRQEARRLLELEDDTYVIANVGRLHRDKDQATLLRGFAQALPELPANTLLLILGKGPLEQELKALASELGIAGNVRFAGQVPEARRYFRAFDLFVLTSDHEPFGMVLLEAMAAELPIICSDSGGGAEVVNGYGDLFSLGNPHHLSSLLIARSRLPQAANSSADILHEKFSDAAARKHFFMLTFIKDLLFI”, “not soluble”; that for “MKVTSLDGRQLRKMLRKEAAARCVVLDCRPYLAFAASNVRGSLNVNLNSVVLRRARGGAVSARYVLPDEAARARLLQEGGGGVAAVVVLDQGSRHWQKLREESAARVVLTSLLACLPAGPRVYFLKGGYETFYSEYPECCVDVKPISQEKIESERALISQCGKPVVNVSYRPAYDQGGPVEI”, “not soluble”.

In the case of “MHDTEKSDSGIVAEKPTNKAGLLAAEWAEPRPGTKGNAEQQRMHRTQGRARMTQSLDRVRTAARLRKKDRFTALFHHINVDTLRAAFFALRRKAAPGVDGMTWEDYEEDLEPRLADLHKRVQRGAYRPQPSRRTYIPKADGKQRPLAIAALEDKIVQGANRHRAQRHLRRRLLWLFLRVSARQRTTAAALEHHHHHH”, the “soluble on expression in E. coli” value is reported as “soluble”. As for “MGHHHHHHSHLPTTNIGSFPQTTEIRHARASFKKGELSLADYEAAMKKEIEYVVRRQEELDLDVLVHGEAERNDMVEYFGELLDGFAFTKFGWVQSYGSRCVKPPVIYGDVTRPEPMTVRWSQYAQSLTNRVMKGMLTGPVTILQWSFVRNDIPRSTVCKQIGVALSDEVLDLEAAGIKVIQIDEPAIREGLPLKRADWDAYLQWAGEAFRLSSMGVQDDTQIHTHMCYSEFNDILPAIAALDADVITIETSRSDMELLTAFADFKYPNDIGPGVYDIHSPRVPTATEVEHLLRKALNVIPKERLWVNPDCGLKTRGWTETIDQLKVMVDVTKK”, the “soluble on expression in E. coli” value is reported as “not soluble”. For “MAGGDDLKLLGAWPSPFVTRVKLALALKGLSYEDVEEDLYKKSELLLKSNPVHKKIPVLIHNGAPVCESMIILQYIDEVFASTGPSLLPADPYERAIARFWVAYVDDKLVAPWRQWLRGKTEEEKSEGKKQAFAAVGVLEGALRECSKGGGFFGGDGVGLVDVALGGVLSWMKVTEALSGDKIFDAAKTPLLAAWVERFIELDAAKAALPDVGRLLEFAKAREAAAAASK”, the “soluble on expression in E. coli” value was “soluble”. With “EAYIGVLIDDLVTKGTNEPYRLLTSRAEYRLLLRHDNADLRLTEKGYEIGLIARERYERFCEKKAQIAAEKKRLESITVKPSKEVNALLEEVGSAPLKEAVQANVFLKRPEVTYEHVAKVIPAPEQELSADVAEQVEIQIKYEGYISKMLQQVERAKKMNDKKIPEDLDYDAINGLATEAKQKLSEVRPLSVGQASRVSGVNPSDISILLVYLE”, the “soluble on expression in E. coli” value is “not soluble”.
